Data as given in publication PMC10598214, “SaLT&PepPr is an interface-predicting language model for designing peptide-guided protein degraders” (Communications Biology, 2023).

Target: T1, β-catenin (UniProt P35222 1-781)
T1 sequence (looked up): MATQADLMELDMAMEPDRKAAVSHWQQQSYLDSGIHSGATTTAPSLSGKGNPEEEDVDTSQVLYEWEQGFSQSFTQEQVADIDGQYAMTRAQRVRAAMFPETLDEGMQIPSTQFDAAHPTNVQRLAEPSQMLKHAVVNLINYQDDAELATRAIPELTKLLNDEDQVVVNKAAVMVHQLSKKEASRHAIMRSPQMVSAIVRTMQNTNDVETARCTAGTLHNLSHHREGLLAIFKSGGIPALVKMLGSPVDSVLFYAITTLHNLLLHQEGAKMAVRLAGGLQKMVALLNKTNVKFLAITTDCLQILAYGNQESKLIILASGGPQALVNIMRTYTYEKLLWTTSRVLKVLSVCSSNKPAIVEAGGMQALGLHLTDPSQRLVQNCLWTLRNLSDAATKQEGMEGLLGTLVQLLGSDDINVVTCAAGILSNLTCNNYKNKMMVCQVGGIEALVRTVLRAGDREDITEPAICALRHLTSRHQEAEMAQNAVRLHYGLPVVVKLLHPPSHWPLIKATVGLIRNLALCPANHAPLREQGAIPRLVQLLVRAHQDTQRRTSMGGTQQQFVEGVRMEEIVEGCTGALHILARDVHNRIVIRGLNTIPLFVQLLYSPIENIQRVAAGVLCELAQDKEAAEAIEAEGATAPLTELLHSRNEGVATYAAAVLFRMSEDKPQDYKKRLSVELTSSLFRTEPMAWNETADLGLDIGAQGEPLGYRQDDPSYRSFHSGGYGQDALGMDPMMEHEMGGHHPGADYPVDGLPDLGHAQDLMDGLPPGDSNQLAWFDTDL
Assay: cell-based or functional assay

B1: SnP_8 uAb (designed binder)
chain: PTAPPYDSLLVFDYEGGSGSGRLNFGDDIPSALRIAKKKRWNSIEERRIHQESELHSYLSRLIAAERERELEECQRNHEGDEDDSHVRAQQACIEAKHDKYMADMDELFSQVDEKRKKRDIPDYLCGKISFELMREPCITPSGITYDRKDIEEHLQRVGHFDPVTRSPLTQEQLIPNLAMKEVIDAFISENGWVEDY
modifications: biotinylated with EZ-Link NHS-Biotin
degradation of endogenous cytosolic β-catenin in transfected DLD1 cells (immunoblot densitometry, relative to non-transfected control): > 60%
